{
  "source": "FireProtDB",
  "proteins": {"B1": {"name": "FMN-dependent NADH:quinone oxidoreductase 1 wild type, Q88IY3 (protein)", "chain": "MKLLHIDSSILGDNSASRQLSREVVEAWKAADPSVEVVYRDLAADAIAHFSAATLVAAGTPEDVRDAAQAFEAKLSAETLEEFLAADAVVIGAPMYNFTVPTQLKAWIDRVAVAGKTFRYTEAGPQGLCGNKKVVLVSTAGGLHAGQPTGAGHEDFLKVFLGFIGITDLEIVRAHGLAYGPEQRSQAIDAAQAQIASELFAAA"}, "B2": {"name": "Tryptophan synthase alpha chain wild type, P00929 (protein)", "chain": "MERYENLFAQLNDRREGAFVPFVTLGDPGIEQSLKIIDTLIDAGADALELGVPFSDPLADGPTIQNANLRAFAAGVTPAQCFEMLALIREKHPTIPIGLLMYANLVFNNGIDAFYARCEQVGVDSVLVADVPVEESAPFRQAALRHNIAPIFICPPNADDDLLRQVASYGRGYTYLLSRSGVTGAENRGALPLHHLIEKLKEYHAAPALQGFGISSPEQVSAAVRAGAAGAISGSAIVKIIEKNLASPKQMLAELRSFVSAMKAASRA"}, "B3": {"name": "Alpha-lactalbumin wild type, P00711 (protein)", "chain": "MMSFVSLLLVGILFHATQAEQLTKCEVFRELKDLKGYGGVSLPEWVCTTFHTSGYDTQAIVQNNDSTEYGLFQINNKIWCKDDQNPHSSNICNISCDKFLDDDLTDDIMCVKKILDKVGINYWLAHKALCSEKLDQWLCEKL"}, "B4": {"name": "Formate dehydrogenase wild type, O13437 (protein)", "chain": "MKIVLVLYDAGKHAADEEKLYGCTENKLGIANWLKDQGHELITTSDKEGETSELDKHIPDADIIITTPFHPAYITKERLDKAKNLKLVVVAGVGSDHIDLDYINQTGKKISVLEVTGSNVVSVAEHVVMTMLVLVRNFVPAHEQIINHDWEVAAIAKDAYDIEGKTIATIGAGRIGYRVLERLLPFNPKELLYYDYQALPKEAEEKVGARRVENIEELVAQADIVTVNAPLHAGTKGLINKELLSKFKKGAWLVNTARGAICVAEDVAAALESGQLRGYGGDVWFPQPAPKDHPWRDMRNKYGAGNAMTPHYSGTTLDAQTRYAEGTKNILESFFTGKFDYRPQDIILLNGEYVTKAYGKHDKK"}, "B5": {"name": "wild type, Q72LK2 (protein)", "chain": "MEATLPVLDAKTAALKRRSIRRYRKDPVPEGLLREILEAALRAPSAWNLQPWRIVVVRDPATKRALREAAFGQAHVEEAPVVLVLYADLEDALAHLDEVIHPGVQGERREAQKQAIQRAFAAMGQEARKAWASGQSYILLGYLLLLLEAYGLGSVPMLGFDPERVKAILGLPSHAAIPALVALGYPAEEGYPSHRLPLERVVLWR"}, "B6": {"name": "Bacteriorhodopsin wild type, P02945 (protein)", "chain": "MLELLPTAVEGVSQAQITGRPEWIWLALGTALMGLGTLYFLVKGMGVSDPDAKKFYAITTLVPAIAFTMYLSMLLGYGLTMVPFGGEQNPIYWARYADWLFTTPLLLLDLALLVDADQGTILALVGADGIMIGTGLVGALTKVYSYRFVWWAISTAAMLYILYVLFFGFTSKAESMRPEVASTFKVLRNVTVVLWSAYPVVWLIGSEGAGIVPLNIETLLFMVLDVSAKVGFGLILLRSRAIFGEAEAPEPSAGDGAAATSD"}},
  "details": "whole UniProt chain shown",
  "key": {"[1]": {"details": "Salmonella typhimurium (strain LT2 / SGSC1412 / ATCC 700720), pH 9.01, Thermal, DSC, sodium tetraborate 1 mM"}, "[2]": {"details": "Halobacterium salinarum (strain ATCC 700922 / JCM 11081 / NRC-1), pH 7, Thermal, DSC, phosphate 0.1 M"}},
  "note": "Values joined by “and” are separate entries in the source; they are usually repeats but may differ in a detail not shown here. Identical values can stand only once.",
  "data": [
    {"protein": "B1", "values": [
      {"measurement": "Tm", "setting": "Pseudomonas putida (strain ATCC 47054 / DSM 6125 / CFBP 8728 / NCIMB 11950 / KT2440), Fluorescence spectroscopy", "result": 47, "unit": "°C"}
    ]},
    {"protein": "B2", "values": [
      {"measurement": "Tm", "setting": "[1]", "result": 46.2, "unit": "°C"},
      {"measurement": "unfolding enthalpy (van 't Hoff)", "setting": "[1]", "result": 3.68, "unit": "kcal/mol"}
    ]},
    {"protein": "B3", "values": [
      {"measurement": "Tm", "setting": "Bos taurus, pH 6, Thermal, DSC, Unknown", "result": 59, "unit": "°C"}
    ]},
    {"protein": "B4", "values": [
      {"measurement": "Tm", "setting": "Candida boidinii", "result": 59, "unit": "°C"}
    ]},
    {"protein": "B5", "values": [
      {"measurement": "Tm", "setting": "Thermus thermophilus (strain ATCC BAA-163 / DSM 7039 / HB27)", "result": 30, "unit": "°C"}
    ]},
    {"protein": "B6", "values": [
      {"measurement": "unfolding enthalpy (calorimetric)", "setting": "[2]", "result": "50 kcal/mol and 86 kcal/mol and 104 kcal/mol"},
      {"measurement": "unfolding enthalpy (van 't Hoff)", "setting": "[2]", "result": "71 kcal/mol and 125 kcal/mol and 155 kcal/mol"}
    ]}
  ]
}
